Results from patent publication CN115181181A (NANJING RONGJIEKANG BIOTECHNOLOGY CO LTD, dated 2022).

T1: 人源重组CD25蛋白 (human IL-2RA) (human, UniProt P01589 22-240)
T1 construct: extracellular domain; also called CD25重组蛋白; 人源重组胞外结构域蛋白
T1 sequence (looked up): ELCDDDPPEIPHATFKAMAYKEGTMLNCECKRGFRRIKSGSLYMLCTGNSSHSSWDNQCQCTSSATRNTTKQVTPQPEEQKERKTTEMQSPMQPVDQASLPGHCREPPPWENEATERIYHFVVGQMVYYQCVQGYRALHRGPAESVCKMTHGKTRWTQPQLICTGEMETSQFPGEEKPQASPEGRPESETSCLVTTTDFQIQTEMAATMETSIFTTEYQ

B1: 单域抗体1B5 (原核粗提VHH) (VHH)
VHH: ESGGGSVQAGGSLRLSCAASGYTYSSNCMGWFRQAPGKEREGVAAIDTGGGYTYYADSVEGRFTISQDKAKNTVYLQMNSLKPEDTAMYYCAADTGRCFPHVPYEVDFGYWGQGTQVTVSS
notes: also called VHH2; not shown: tags from the pMECS vector (detected with anti-HA antibody)
B2: 单域抗体3F5 (原核粗提VHH) (VHH)
VHH: ESGGGSVQAGGSLRLSCAASGYTYSRNCVGWFRQAPGKEREGVAAIDSGGGYSYYADSVKGRFTISQDNAKNTVFLQMNSLKPEDTAVYYCAAEPASCFPHVPTEVDFGYWGRGTQVTVSS
notes: also called VHH7; not shown: tags from the pMECS vector (detected with anti-HA antibody)
B3: 单域抗体4H7 (原核粗提VHH) (VHH)
VHH: ESGGGSVQAGGSLRLSCAASESTYRRTYMAWFRQAPGKERDGVAVIYTGNGVTWYADSVEGRFTISQDNAKNTVYLQMNSLKPEDTAMYYCAADSMRGRNVLHSGFYHYWGQGTQVTVSS
notes: also called VHH11; not shown: tags from the pMECS vector (detected with anti-HA antibody)
B4: 单域抗体3G3 (原核粗提VHH) (VHH)
VHH: ESGGGSVQAGGSLRLSCVGSRYTSITGCMGWFRQAPGKEREGVAAIDTGGGHTYYADSVKGRFTIAQDNAKNTVYLQVNSLKPEDTGMYYCAAEASPCFPHNPQVADFGYWGQGTQVTVSS
notes: also called VHH8; not shown: tags from the pMECS vector (detected with anti-HA antibody)
B5: 单域抗体1A5 (原核粗提VHH) (VHH)
VHH: ESGGGSVQAGGSLRLSCAASGYTYSSNCMGWFRQAPGKEREGVAAIDTGGGHTYYADSVVKGRFTISQDNAKNTVYLQMNSLKPEDTAMYYCAADSGYCYAEEPAPDRFGYWGQGTQVTVSS
notes: also called VHH1; not shown: tags from the pMECS vector (detected with anti-HA antibody)
B6: 单域抗体4D9 (原核粗提VHH) (VHH)
VHH: ESGGGSVQAGGSLRLSCAASGYPYRRNCMGWFRQAPGKEREGVAAIDSAGTTTYADSVKGRFTISKDDAKNTLYLQMNSLKPEDTAMYYCALNAPTWECRAGGAPAFAYSGQGTQVTVSS
notes: also called VHH10; not shown: tags from the pMECS vector (detected with anti-HA antibody)
B7: 单域抗体1H1 (原核粗提VHH) (VHH)
VHH: ESGGGSVQAGGSLRLSCAASGYTSRRNCMGWFRQAPGKEREGVAAINTAGGHTYYADSVEGRFTISQDNARNTVYLQMNSLKPEDTGMYYCAAETGSYCYAHVPESADFGYWGQGTQVTVSS
notes: also called VHH4; not shown: tags from the pMECS vector (detected with anti-HA antibody)
B8: 单域抗体3E11 (原核粗提VHH) (VHH)
VHH: ESGGGSVQAGGSLRLSCVASGYTYSRRCMGWFRQAPGKEREGVAAIYSGNGVTYYPDSVKGRFTISQDNAKNTVYLQMNSLKPEDTAMYYCAAQGDYCYAHAPEPADFGYWGQGTQVTVSS
notes: also called VHH6; not shown: tags from the pMECS vector (detected with anti-HA antibody)
B9: 单域抗体2H3 (原核粗提VHH) (VHH)
VHH: ESGGGSVQAGGSLRLSCAASGHTSSSNRMGWFRQAPGKEPEGVAVISTGGGRTLYADSVKGRFTISQDNAKNTLGLQMNSLKPEDTAMYYCAAAASSIAISRFWTWPPKEFFDYWGQGTQVTVSS
notes: also called VHH5; not shown: tags from the pMECS vector (detected with anti-HA antibody)
B10: 单域抗体4A4 (原核粗提VHH) (VHH)
VHH: ESGGGSVQAGETLRLSCTASGFTFDDSDMGWYRQAPGNECELVSIMRSDRSTYYAASVKGRFTISQDNAKNTVYLQMNSLKPEDTAVYHCAAAGAISIAAACPTHWWGQGTQVTVSS
notes: also called VHH9; not shown: tags from the pMECS vector (detected with anti-HA antibody)
B11: 单域抗体1E1 (原核粗提VHH) (VHH)
VHH: ESGGGSVEAGGSLRLSCARPGYDYDTDYMGWFRQAPGKEREGVATIYTQKGFTWYADSVKGRFTISQDNAKNTVYLQMNSLKPEDTAMYYCAAADYGAATSKLNPSKYNAWGQGTQVTVSS
notes: also called VHH3; not shown: tags from the pMECS vector (detected with anti-HA antibody)

Target: T1, 人源重组CD25蛋白 (human IL-2RA)
Experiment: screening ELISA: crude VHH extract on coated CD25, anti-HA-HRP detection; positive if OD450 is over 5 times the control

| Binder | binding result |
| --- | --- |
| B1 | binds |
| B2 | binds |
| B3 | binds |
| B4 | binds |
| B5 | binds |
| B6 | binds |
| B7 | binds |
| B8 | binds |
| B9 | binds |
| B10 | binds |
| B11 | binds |
